According to article PMC3138748, “A Small Peptide Modeled after the NRAGE Repeat Domain Inhibits XIAP-TAB1-TAK1 Signaling for NF-κB Activation and Apoptosis in P19 Cells” (PLoS ONE, 2011):
Each block holds one binder with its values, some of them ahead of it.

Experiments:
Assay in all cases: FRET or BRET; donor dequenching ECFP:EYFP FRET, confocal; co-transfected 293T cells, fixed with 4% paraformaldehyde 48 h after transfection; no BMP ligand
Conditions in all cases: partners not purified
EYFP-XIAP = molecular target: T1, EYFP-XIAP (UniProt Q60989 1-496)
T1 construct: also called Y-X; source: 293T, co-transfected, in fixed cells; not shown: EYFP, N-terminal, kept
T1 sequence (Q60989 whole entry): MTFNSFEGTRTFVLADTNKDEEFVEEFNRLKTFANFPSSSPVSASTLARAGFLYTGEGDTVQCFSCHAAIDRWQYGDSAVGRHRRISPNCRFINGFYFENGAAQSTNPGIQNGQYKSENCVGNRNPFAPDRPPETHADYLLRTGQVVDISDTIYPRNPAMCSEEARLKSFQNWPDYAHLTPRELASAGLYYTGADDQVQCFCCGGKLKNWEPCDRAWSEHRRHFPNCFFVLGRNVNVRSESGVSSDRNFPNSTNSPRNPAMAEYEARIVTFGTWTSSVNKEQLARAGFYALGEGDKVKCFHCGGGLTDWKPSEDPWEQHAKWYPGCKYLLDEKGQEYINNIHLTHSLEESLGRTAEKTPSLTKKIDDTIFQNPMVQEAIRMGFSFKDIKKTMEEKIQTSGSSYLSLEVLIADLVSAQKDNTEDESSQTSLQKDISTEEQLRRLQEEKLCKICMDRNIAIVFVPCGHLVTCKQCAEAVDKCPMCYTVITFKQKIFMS

[1] = molecular target: T2, YFP-NRAGE (full-length NRAGE) (UniProt Q9ES73 1-775)
T2 construct: NRAGE (MAGE-D1), full length; the cloning of this construct is not described; also called Y-NR; source: 293T, co-transfected, in fixed cells
T2 sequence (looked up): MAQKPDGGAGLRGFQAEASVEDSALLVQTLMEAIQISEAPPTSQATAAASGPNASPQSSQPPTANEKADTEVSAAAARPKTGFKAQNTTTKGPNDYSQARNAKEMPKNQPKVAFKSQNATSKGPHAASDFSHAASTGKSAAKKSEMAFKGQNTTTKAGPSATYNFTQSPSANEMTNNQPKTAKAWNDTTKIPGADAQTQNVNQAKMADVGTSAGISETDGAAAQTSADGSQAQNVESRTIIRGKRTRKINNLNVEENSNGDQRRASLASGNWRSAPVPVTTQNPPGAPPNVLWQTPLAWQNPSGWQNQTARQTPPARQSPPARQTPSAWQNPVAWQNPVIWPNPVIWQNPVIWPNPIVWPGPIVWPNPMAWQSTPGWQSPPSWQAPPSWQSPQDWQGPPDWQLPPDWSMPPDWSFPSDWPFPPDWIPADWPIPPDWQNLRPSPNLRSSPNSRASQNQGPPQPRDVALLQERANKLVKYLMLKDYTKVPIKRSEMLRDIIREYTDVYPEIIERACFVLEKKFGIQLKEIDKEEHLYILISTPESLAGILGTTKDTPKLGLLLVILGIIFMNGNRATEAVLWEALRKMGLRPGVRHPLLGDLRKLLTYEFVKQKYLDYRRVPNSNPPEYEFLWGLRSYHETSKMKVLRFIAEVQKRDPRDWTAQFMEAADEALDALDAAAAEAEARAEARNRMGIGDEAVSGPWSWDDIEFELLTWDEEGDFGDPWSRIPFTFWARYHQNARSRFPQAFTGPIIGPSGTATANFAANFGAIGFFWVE

ECFP-XIAP = molecular target: T3, ECFP-XIAP (UniProt Q60989 1-496)
T3 construct: also called C-X; source: 293T, co-transfected, in fixed cells; not shown: ECFP, N-terminal, kept
T3 sequence (Q60989 whole entry): as the sequence (Q60989 whole entry) above

[2] = molecular target: T4, CFP-NRAGE (full-length NRAGE) (UniProt Q9ES73 1-775)
T4 construct: NRAGE (MAGE-D1), full length; the cloning of this construct is not described; also called C-NR; source: 293T, co-transfected, in fixed cells
T4 sequence (looked up): T2 sequence (looked up)

average peak energy transfer efficiency (FRET) (EYFP-XIAP): 0.46%
average peak energy transfer efficiency (FRET) [1]: 0.41%
B1: NRAGE peptide-CFP (NRAGE peptide DNA in pECFP-N1) (peptide)
chain: PPAWQTPPAWQTPPAWQTPPAWQT
notes: four repeats of the final consensus hexapeptide PPAWQT of the NRAGE repeat domain; also called pep-C; NRAGE peptide DNA-CFP; source: 293T, co-transfected, in fixed cells; not shown: ECFP, C-terminal, kept

average peak energy transfer efficiency (FRET) (ECFP-XIAP): 0.34%
average peak energy transfer efficiency (FRET) [2]: 0.36%
B2: NRAGE peptide-YFP (NRAGE peptide DNA in pEYFP-N1) (peptide)
chain: PPAWQTPPAWQTPPAWQTPPAWQT
notes: four repeats of the final consensus hexapeptide PPAWQT of the NRAGE repeat domain; also called pep-Y; NRAGE peptide DNA-YFP; source: 293T, co-transfected, in fixed cells; not shown: EYFP, C-terminal, kept
